According to patent publication US20180169261A1 (Seagen, published 2018):

Experiments:
human CD123 [1] = molecular target: T1, human CD123 (human, UniProt P26951 19-378); assay: cell-based or functional assay
human CD123 [2] = molecular target: T1, human CD123; assay: cell-based or functional assay; remark: listed apart in the source
human CD123 [3] = molecular target: T1, human CD123; assay: cell-based or functional assay; remark: listed apart in the source
cynomolgus CD123 = molecular target: T2, cynomolgus CD123 (cynomolgus); assay: saturation binding of AlexaFluor-488 labeled mAb, flow cytometry on HEK293F cells expressing cyno CD123; apparent Kd
T2 construct: whole, on cells; Expressed on transfected HEK-293F cells; also called cyno CD123
Protocol: (§1) One hundred thousand CD123-positive cells (HEK-293F cells transfected to express human or cynomologus CD123) were transferred to 96-well plates. […] Cells were pelleted by centrifugation, washed 3 times with a PBS+1% BSA solution, and resuspended in 125 μL of PBS+1% BSA. Fluorescence was analyzed using a flow cytometer, and the percent of saturated fluorescent signal was used to determine percent bound and to subsequently calculate apparent Kd.

human CD123 [4] = molecular target: T1, human CD123; assay: saturation binding of AlexaFluor-488 labeled mAb, flow cytometry on HEK293F cells expressing human CD123; apparent Kd
Protocol: as §1

human CD123 [5] = molecular target: T1, human CD123; assay: competition with 5 nM AlexaFluor-488 m7G3, flow cytometry on Molm-13 AML cells
Protocol: Cells were centrifuged, washed 3 times with PBS, and resuspended in 125 μL of a PBS+1% BSA solution. Fluorescence was analyzed using a flow cytometer, and the percent of saturated fluorescent signal was used to determine percent labeled 7G3 mAb bound. The EC50 was extrapolated by fitting the data to a sigmoidal dose-response curve with variable slope.

T1 sequence (P26951 19-378): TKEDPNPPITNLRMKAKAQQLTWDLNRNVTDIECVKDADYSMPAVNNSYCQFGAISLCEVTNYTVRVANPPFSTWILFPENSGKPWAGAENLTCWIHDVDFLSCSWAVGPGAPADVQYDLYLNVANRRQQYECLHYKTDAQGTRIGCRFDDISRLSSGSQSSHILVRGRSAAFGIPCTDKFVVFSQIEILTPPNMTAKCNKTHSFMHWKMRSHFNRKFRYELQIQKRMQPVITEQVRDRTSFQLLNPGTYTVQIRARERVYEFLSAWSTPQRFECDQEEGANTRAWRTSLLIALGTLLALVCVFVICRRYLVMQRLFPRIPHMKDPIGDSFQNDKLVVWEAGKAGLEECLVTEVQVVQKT

B1: h7G3EC-SGD-1910 (antibody, human IgG1, kappa, V domains shown)
VH: QVQLVQSGAEVKKPGASVKMSCKASGYTFTDYYMKWVKQAPGQGLEWIGDIIPSNGATFYNQKFKGKATLTVDRSISTAYMHLNRLRSDDTAVYYCTRSHLLRASWFAYWGQGTLVTVSS
VL: DFVMTQSPDSLAVSLGERATINCKSSQSLLNSGNQKNYLTWYLQKPGQPPKLLIYWASTRESGVPDRFSGSGSGTDFTLTISSLQAEDVAVYYCQNDYSYPYTFGQGTKLEIKR
modifications: SGD-1910 PBD drug-linker on the thiol of Cys 239 (EU index); average drug load about 2 per antibody
In the case of B1, the “mean IC50, in vitro cytotoxicity, responsive CD123-positive AML cell lines” value (human CD123 [1]) is reported as 7 ng/mL, the “mean IC50, in vitro cytotoxicity, responsive primary AML samples” value (human CD123 [1]) is reported as 1 ng/mL and the “IC50, in vitro cytotoxicity (CelltiterGlo, 96 h), GDM-1 AML cells” value (human CD123 [2]) is reported as 3.5 ng/mL. The “IC50, in vitro cytotoxicity (CelltiterGlo, 96 h), HNT-34 AML cells” value (human CD123 [2]) was 0.35 ng/mL, the “IC50, in vitro cytotoxicity (CelltiterGlo, 96 h), KG1-INV AML cells” value (human CD123 [2]) was 0.6 ng/mL and the “IC50, in vitro cytotoxicity (CelltiterGlo, 96 h), KG-1 AML cells” value (human CD123 [2]) was 0.8 ng/mL. For the same binder, the “IC50, in vitro cytotoxicity (CelltiterGlo, 96 h), Kasumi-1 AML cells” value (human CD123 [2]) was 1 ng/mL, the “IC50, in vitro cytotoxicity (CelltiterGlo, 96 h), MV4-11 AML cells” value (human CD123 [2]) was 0.02 ng/mL and the “IC50, in vitro cytotoxicity (CelltiterGlo, 96 h), Molm-13 AML cells” value (human CD123 [2]) was 0.08 ng/mL. For the same binder, the “IC50, in vitro cytotoxicity (CelltiterGlo, 96 h), NOMO-1 AML cells” value (human CD123 [2]) was 38 ng/mL, the “IC50, in vitro cytotoxicity (CelltiterGlo, 96 h), SKM-1 AML cells” value (human CD123 [2]) was 2.5 ng/mL and the “IC50, in vitro cytotoxicity (CelltiterGlo, 96 h), TF1a AML cells” value (human CD123 [2]) was greater than 1000 ng/mL. The “IC50, in vitro cytotoxicity (CelltiterGlo, 96 h), THP-1 AML cells” value (human CD123 [2]) was 24 ng/mL, the “IC50, in vitro cytotoxicity (Annexin V/PI flow cytometry), primary AML sample FH016” value (human CD123 [3]) was 1.4 ng/mL and the “IC50, in vitro cytotoxicity (Annexin V/PI flow cytometry), primary AML sample FH018” value (human CD123 [3]) was 0.12 ng/mL. For the same binder, the “IC50, in vitro cytotoxicity (Annexin V/PI flow cytometry), primary AML sample FH019” value (human CD123 [3]) was greater than 2.5 ng/mL, the “IC50, in vitro cytotoxicity (Annexin V/PI flow cytometry), primary AML sample FH020” value (human CD123 [3]) was 2.5 ng/mL and the “IC50, in vitro cytotoxicity (Annexin V/PI flow cytometry), primary AML sample FH021” value (human CD123 [3]) was 1.6 ng/mL. The “IC50, in vitro cytotoxicity (Annexin V/PI flow cytometry), primary AML sample FH022” value (human CD123 [3]) was 0.56 ng/mL, the “IC50, in vitro cytotoxicity (Annexin V/PI flow cytometry), primary AML sample FH023” value (human CD123 [3]) was 0.06 ng/mL and the “IC50, in vitro cytotoxicity (Annexin V/PI flow cytometry), primary AML sample FH024” value (human CD123 [3]) was 2 ng/mL. The “IC50, in vitro cytotoxicity (Annexin V/PI flow cytometry), primary AML sample FH025” value (human CD123 [3]) was 6.5 ng/mL, the “IC50, in vitro cytotoxicity (Annexin V/PI flow cytometry), primary AML sample FH026” value (human CD123 [3]) was 0.22 ng/mL and the “IC50, in vitro cytotoxicity (Annexin V/PI flow cytometry), primary AML sample FH027” value (human CD123 [3]) was greater than 2.5 ng/mL. The “IC50, in vitro cytotoxicity (Annexin V/PI flow cytometry), primary AML sample FH028” value (human CD123 [3]) was 2 ng/mL, the “IC50, in vitro cytotoxicity (Annexin V/PI flow cytometry), primary AML sample FH029” value (human CD123 [3]) was 0.46 ng/mL and the “IC50, in vitro cytotoxicity (Annexin V/PI flow cytometry), primary AML sample FH034” value (human CD123 [3]) was 0.22 ng/mL. For the same binder, the “IC50, in vitro cytotoxicity (Annexin V/PI flow cytometry), primary AML sample FH036” value (human CD123 [3]) was 0.16 ng/mL, the “IC50, in vitro cytotoxicity (Annexin V/PI flow cytometry), primary AML sample FH037” value (human CD123 [3]) was 0.68 ng/mL and the “IC50, in vitro cytotoxicity (Annexin V/PI flow cytometry), primary AML sample FH038” value (human CD123 [3]) was 0.18 ng/mL.

B2: h7G3EC (antibody, human IgG1, kappa, V domains shown)
VH: QVQLVQSGAEVKKPGASVKMSCKASGYTFTDYYMKWVKQAPGQGLEWIGDIIPSNGATFYNQKFKGKATLTVDRSISTAYMHLNRLRSDDTAVYYCTRSHLLRASWFAYWGQGTLVTVSS
VL: DFVMTQSPDSLAVSLGERATINCKSSQSLLNSGNQKNYLTWYLQKPGQPPKLLIYWASTRESGVPDRFSGSGSGTDFTLTISSLQAEDVAVYYCQNDYSYPYTFGQGTKLEIKR
notes: EC means cysteine at position 239 (EU index) of the IgG1 heavy chain; Unconjugated antibody; also called humanized 7G3 with S239C
With B2 the Kd (cynomolgus CD123) was 6.6 nM and the Kd (human CD123 [4]) was 2.7 nM.

B3: HCLA (antibody, V domains shown)
VH: QVQLVQSGAEVKKPGASVKMSCKASGYTFTDYYMKWVKQAPGQGLEWIGDIIPSNGATFYNQKFKGKATLTVDRSISTAYMHLNRLRSDDTAVYYCTRSHLLRASWFAYWGQGTLVTVSS
VL: DFVMTQSPDSLAVSLGERATINCKSSQSLLNSGNQKNYLTWYLQKPGQPPKLLIYWASTRESGVPDRFSGSGSGTDFTLTISSLQAEDVAVYYCQNDYSYPYTFGQGTKLEIKR
notes: also called lead humanized 7G3 antibody; vHC/vLA
B3 was tested, and the EC50 (human CD123 [5]) was 2.6 nM.

B4: h7G3, G1 (antibody, V domains shown)
VH: QVQLVQSGAEVKKPGASVKMSCKASGYTFTDYYMKWVKQAPGQGLEWIGDIIPSNGATFYNQKFKGKATLTVDRSISTAYMHLNRLRSDDTAVYYCTRSHLLRASWFAYWGQGTLVTVSS
VL: DFVMTQSPDSLAVSLGERATINCKSSQSLLNSGNQKNYLTWYLQKPGQPPKLLIYWASTRESGVPDRFSGSGSGTDFTLTISSLQAEDVAVYYCQNDYSYPYTFGQGTKLEIKR
notes: also called humanized 7G3, IgG1
Binder B4 has a Kd (cynomolgus CD123) of 5.3 nM and a Kd (human CD123 [4]) of 2.7 nM.

B5: murine 7G3 antibody (antibody, V domains shown)
VH: EVQLQQSGPELVKPGASVKMSCKASGYTFTDYYMKWVKQSHGKSLEWIGDIIPSNGATFYNQKFKGKATLTVDRSSSTAYMHLNSLTSEDSAVYYCTRSHLLRASWFAYWGQGTLVTVSA
VL: DFVMTQSPSSLTVTAGEKVTMSCKSSQSLLNSGNQKNYLTWYLQKPGQPPKLLIYWASTRESGVPDRFTGSGSGTDFTLTISSVQAEDLAVYYCQNDYSYPYTFGGGTKLEIKR
notes: Murine monoclonal antibody; also called m7G3
For B5, the EC50 (human CD123 [5]) was 4.3 nM, the Kd (cynomolgus CD123) was 4.6 nM and the Kd (human CD123 [4]) was 2.7 nM.

B6: Chimeric 7G3 (antibody, V domains shown)
VH: EVQLQQSGPELVKPGASVKMSCKASGYTFTDYYMKWVKQSHGKSLEWIGDIIPSNGATFYNQKFKGKATLTVDRSSSTAYMHLNSLTSEDSAVYYCTRSHLLRASWFAYWGQGTLVTVSA
VL: DFVMTQSPSSLTVTAGEKVTMSCKSSQSLLNSGNQKNYLTWYLQKPGQPPKLLIYWASTRESGVPDRFTGSGSGTDFTLTISSVQAEDLAVYYCQNDYSYPYTFGGGTKLEIKR
Binder B6 has an EC50 (human CD123 [5]) of 2 nM, a Kd (cynomolgus CD123) of 4.7 nM and a Kd (human CD123 [4]) of 2.7 nM.
